Data reported in publication doi:10.1101/595835, “An oligomeric state-dependent switch in FICD regulates AMPylation and deAMPylation of the chaperone BiP” (bioRxiv, 2019).

Target: the molecule itself
Assay: SEC; analytical SEC, SEC-3 HPLC column, HKMC buffer (50 mM HEPES-KOH pH 7.4, 150 mM KCl, 10 mM MgCl2, 1 mM CaCl2), 25 °C; FICD at 20 µM, or 0.2-50 µM after 16 h at 25 °C (Figure S1D-E); approximate Kd of dimer to monomers from elution peak times

B1: FICD^G299S (aa 104-445) (domain or fragment, human, UniProt Q9BVA6 104-445, looked up)
chain: LEARAALNQALEMKRQGKREKAQKLFMHALKMDPDFVDALTEFGIFSEEDKDIIQADYLYTRALTISPYHEKALVNRDRTLPLVEEIDQRYFSIIDSKVKKVMSIPKGNSALRRVMEETYYHHIYHTVAIEGNTLTLSEIRHILETRYAVPGKSLEEQNEVIGMHAAMKYINTTLVSRIGSVTISDVLEIHRRVLSYVDPVEAGRFRTTQVLVGHHIPPHPQDVEKQMQEFVQWLNSEEAMNLHPVEFAALAHYKLVYIHPFIDGNGRTSRLLMNLILMQAGYPPITIRKEQRSDYYHVLEAANEGDVRPFIRFIAKCTETTLDTLLFATTEYSVALPEAQP
notes: human FICD (HYPE), aa 104-445; Partially monomeric; also called Gly299Ser; source: E. coli T7 Express lysY/I^q, purified (Ni-NTA, on-column Ulp1 cleavage, anion exchange, SEC); not shown: His6, N-terminal, cleaved; Smt3, N-terminal, cleaved
- Kd: 9.5 µM

B2: FICD^K256S (aa 104-445) (domain or fragment, human, UniProt Q9BVA6 104-445, looked up)
chain: LEARAALNQALEMKRQGKREKAQKLFMHALKMDPDFVDALTEFGIFSEEDKDIIQADYLYTRALTISPYHEKALVNRDRTLPLVEEIDQRYFSIIDSKVKKVMSIPKGNSALRRVMEETYYHHIYHTVAIEGNTLTLSEIRHILETRYAVPGSSLEEQNEVIGMHAAMKYINTTLVSRIGSVTISDVLEIHRRVLGYVDPVEAGRFRTTQVLVGHHIPPHPQDVEKQMQEFVQWLNSEEAMNLHPVEFAALAHYKLVYIHPFIDGNGRTSRLLMNLILMQAGYPPITIRKEQRSDYYHVLEAANEGDVRPFIRFIAKCTETTLDTLLFATTEYSVALPEAQP
notes: human FICD (HYPE), aa 104-445; also called Lys256Ser; dimer relay mutant; source: E. coli T7 Express lysY/I^q, purified (Ni-NTA, on-column Ulp1 cleavage, anion exchange, SEC); not shown: His6, N-terminal, cleaved; Smt3, N-terminal, cleaved
- Kd: < 0.4 µM

B3: FICD^E242A (aa 104-445) (domain or fragment, human, UniProt Q9BVA6 104-445, looked up)
chain: LEARAALNQALEMKRQGKREKAQKLFMHALKMDPDFVDALTEFGIFSEEDKDIIQADYLYTRALTISPYHEKALVNRDRTLPLVEEIDQRYFSIIDSKVKKVMSIPKGNSALRRVMEETYYHHIYHTVAIEGNTLTLSAIRHILETRYAVPGKSLEEQNEVIGMHAAMKYINTTLVSRIGSVTISDVLEIHRRVLGYVDPVEAGRFRTTQVLVGHHIPPHPQDVEKQMQEFVQWLNSEEAMNLHPVEFAALAHYKLVYIHPFIDGNGRTSRLLMNLILMQAGYPPITIRKEQRSDYYHVLEAANEGDVRPFIRFIAKCTETTLDTLLFATTEYSVALPEAQP
notes: human FICD (HYPE), aa 104-445; also called dimer relay mutant; source: E. coli T7 Express lysY/I^q, purified (Ni-NTA, on-column Ulp1 cleavage, anion exchange, SEC); not shown: His6, N-terminal, cleaved; Smt3, N-terminal, cleaved
- Kd: < 0.4 µM

B4: non-oxidised FICD^A252C-C421S (aa 104-445) (domain or fragment, human, UniProt Q9BVA6 104-445, looked up)
chain: LEARAALNQALEMKRQGKREKAQKLFMHALKMDPDFVDALTEFGIFSEEDKDIIQADYLYTRALTISPYHEKALVNRDRTLPLVEEIDQRYFSIIDSKVKKVMSIPKGNSALRRVMEETYYHHIYHTVAIEGNTLTLSEIRHILETRYCVPGKSLEEQNEVIGMHAAMKYINTTLVSRIGSVTISDVLEIHRRVLGYVDPVEAGRFRTTQVLVGHHIPPHPQDVEKQMQEFVQWLNSEEAMNLHPVEFAALAHYKLVYIHPFIDGNGRTSRLLMNLILMQAGYPPITIRKEQRSDYYHVLEAANEGDVRPFIRFIAKSTETTLDTLLFATTEYSVALPEAQP
notes: human FICD (HYPE), aa 104-445; also called non-disulphide-bonded FICD^A252C-C421S; UK 2219; source: E. coli, purified; separate preparation not subjected to oxidation with glutathione; not shown: His6, N-terminal, cleaved; Smt3, N-terminal, cleaved
- binding result: binds

B5: FICD^C421S (aa 104-445) (domain or fragment, human, UniProt Q9BVA6 104-445, looked up)
chain: LEARAALNQALEMKRQGKREKAQKLFMHALKMDPDFVDALTEFGIFSEEDKDIIQADYLYTRALTISPYHEKALVNRDRTLPLVEEIDQRYFSIIDSKVKKVMSIPKGNSALRRVMEETYYHHIYHTVAIEGNTLTLSEIRHILETRYAVPGKSLEEQNEVIGMHAAMKYINTTLVSRIGSVTISDVLEIHRRVLGYVDPVEAGRFRTTQVLVGHHIPPHPQDVEKQMQEFVQWLNSEEAMNLHPVEFAALAHYKLVYIHPFIDGNGRTSRLLMNLILMQAGYPPITIRKEQRSDYYHVLEAANEGDVRPFIRFIAKSTETTLDTLLFATTEYSVALPEAQP
notes: human FICD (HYPE), aa 104-445; also called cysteine-free FICD^C421S; UK 2161; source: E. coli, purified by the protocol of the disulphide-linked dimers (Ni-NTA, oxidised glutathione, anion exchange, SEC); not shown: His6, N-terminal, cleaved; Smt3, N-terminal, cleaved
- binding result: binds
